The target of test [1] is T1, hIL13-Fc (human, UniProt P35225 25-146).
T1 construct: not shown: Fc part and any linker not described
Briefly: competition ELISA; soluble IL-13Rα2 as positive control against coated IL13Rα2. For orientation: An ELISA detects its analyte on a solid surface through an enzyme-linked reagent.

In test [2] the target is T1, hIL13-Fc. In words: SPR (ProteOn XPR36), periplasmic extract over immobilised Fc fusion.
Test [3] deals with T2, cyno IL13-Fc (cynomolgus monkey, UniProt Q0PW92 11-132).
T2 construct: not shown: Fc part and any linker not described
The description is as above.

The target of test [4] is T1, hIL13-Fc. Briefly: competition ELISA; hIL13-Fc to coated IL13Rα2.
The target in test [5] is T3, human IL-13 (human, UniProt P35225 35-146, limits assumed). Briefly: cell-based or functional assay.
Test [6] has as its target T3, human IL-13. In words: AlphaScreen, purified ISVD; hIL-13 to hIL-13Rα1-hFc.
Test [7] deals with T3, human IL-13. Briefly: AlphaScreen, purified ISVD; hIL-13:hIL-13Rα1:hIL4Rα ternary complex. Background: Bead proximity is the source of the signal in Alpha formats.
Test [8] concerns the target T2, cyno IL13-Fc. In words: SPR (BIAcore T100), cyno IL13-Fc immobilised on CM5; heterogeneous ligand fit, major interaction. On the technique in general: Surface plasmon resonance follows binding to a sensor surface in real time, without labels.
Test [9] deals with T1, hIL13-Fc. In words: SPR (BIAcore T100), hIL13-Fc immobilised on CM5; heterogeneous ligand fit, major interaction.
For test [10], the target named is T1, hIL13-Fc. In words: SPR; * measured on hIL-13-Fc (same values as Table 9).
The target in test [11] is T4, human TSLP (human, UniProt Q969D9 29-159).
T4 construct: also called hTSLP; hTSP
Briefly: AlphaScreen, purified ISVD; hTSLP:hTSLPR:hIL7Rα ternary complex.

The target of test [12] is T5, cyno TSLP (cynomolgus monkey, UniProt A0A7N9CAT7 29-159).
T5 construct: also called cynomolgus monkey TSLP
Briefly: SPR, cyno TSLP.

Test [13] deals with T4, human TSLP. In words: AlphaScreen, purified ISVD; hTSLP to hTSLPR.
Test [14] concerns the target T6, cyno TSLP-Fc (cynomolgus monkey, UniProt A0A7N9CAT7 29-159).
T6 construct: also called cyno TSLP-hFc; not shown: human Fc part and any linker not described
Briefly: SPR, cyno TSLP-hFc (same value as Table 10).

Test [15] has as its target T6, cyno TSLP-Fc. In words: SPR (BIAcore T100), Fc fusion captured by anti-huIgG.
Test [16] has as its target T7, hTSLP-Fc (human, UniProt Q969D9 29-159).
T7 construct: also called hTSLP-hFc; hTLSP-Fc; not shown: human Fc part and any linker not described
The test is described as above.

The target of test [17] is T4, human TSLP. In words: SPR, hTSLP.
Test [18] has as its target T6, cyno TSLP-Fc. In words: SPR (ProteOn XPR36), periplasmic extract over immobilised Fc fusion.
Test [19] has as its target T7, hTSLP-Fc. Described as above.
Test [20] addresses T7, hTSLP-Fc. Briefly: SPR, hTSLP-hFc (same value as Table 10).
For test [21], the target named is T8, cyno IL-13 (cynomolgus monkey, UniProt Q0PW92 21-132).
T8 construct: also called cyIL-13; cynomolgus monkey IL13
In words: Gyrolab in-solution affinity, 72 h incubation.

Test [22] addresses T9, rhesus IL-13 (rhesus monkey, UniProt Q864V6 19-132, limits assumed). In words: Gyrolab in-solution affinity, 72 h incubation.
Test [23] addresses T5, cyno TSLP. Briefly: Gyrolab in-solution affinity, 72 h incubation.
In test [24] the target is T4, human TSLP. Briefly: Gyrolab in-solution affinity, 72 h incubation.
Test [25] addresses T3, human IL-13. In words: Gyrolab in-solution affinity, 72 h incubation.
For a further test, the target named is T10, human IL7 (human, UniProt P13232 26-177).
T10 construct: also called 1L7
T10 sequence (looked up): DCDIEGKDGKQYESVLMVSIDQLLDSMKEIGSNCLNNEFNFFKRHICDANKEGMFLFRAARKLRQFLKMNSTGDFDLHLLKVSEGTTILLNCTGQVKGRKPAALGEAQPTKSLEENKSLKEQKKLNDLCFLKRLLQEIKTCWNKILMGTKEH
In words: SPR (ProteOn XPR36), cytokine immobilised by amine coupling.

The target in another test is T11, human IL4 (human, UniProt P05112 25-153).
T11 construct: also called human 1L4
T11 sequence (looked up): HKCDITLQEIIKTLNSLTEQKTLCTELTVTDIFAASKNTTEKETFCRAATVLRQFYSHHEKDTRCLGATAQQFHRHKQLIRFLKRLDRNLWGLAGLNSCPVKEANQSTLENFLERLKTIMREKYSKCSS
Described as above.

The next test has as its target short form of TSLP (UniProt Q969D9-2 1-63, limits assumed). Briefly: SPR (ProteOn), short form of TSLP immobilised.
Test [26] has as its target T5, cyno TSLP. Briefly: cell-based or functional assay.
Test [27] deals with T4, human TSLP. In words: cell-based or functional assay.
Test [28] addresses T8, cyno IL-13. In words: cell-based or functional assay.
Test [29] addresses T3, human IL-13. Briefly: cell-based or functional assay. This is another data set of the same source.
Test [30] deals with T8, cyno IL-13. In words: Gyrolab in-solution affinity, 48 h incubation.
Test [31] has as its target T5, cyno TSLP. Briefly: Gyrolab in-solution affinity, 48 h incubation.
Test [32] deals with T4, human TSLP. Briefly: Gyrolab in-solution affinity, 48 h incubation.
Test [33] concerns the target T3, human IL-13. In words: Gyrolab in-solution affinity, 48 h incubation.
The target in a further test is T12, human serum albumin (human, UniProt P02768 25-609).
T12 construct: also called HSA; SA (human)
Briefly: Gyrolab in-solution affinity, 2 h incubation.

A further test concerns the target T13, cyno serum albumin (cynomolgus monkey).
T13 construct: also called SA (cynomolgus monkey)
Briefly: Gyrolab in-solution affinity, 2 h incubation.

Another test deals with T14, mouse serum albumin (mouse, UniProt P07724 25-608).
T14 construct: also called SA (mouse)
In words: Gyrolab in-solution affinity, 2 h incubation.

The target of test [34] is T4, human TSLP. In words: cell-based or functional assay. The source holds these as a separate data set.
Test [35] deals with T8, cyno IL-13. In words: cell-based or functional assay. This is another data set of the same source.
In test [36] the target is T9, rhesus IL-13. Briefly: cell-based or functional assay.
In test [37] the target is T3, human IL-13. Briefly: cell-based or functional assay. The source holds these as a separate data set.

Several values for one entry are separate records, joined by “and”; a condition that tells them apart may be missing. Identical values can stand only once. Where only a bound is given, the exact number is not on record here.

B1: IL13Rα2 (receptor, UniProt Q14627 27-343, looked up)
chain: DTEIKVNPPQDFEIVDPGYLGYLYLQWQPPLSLDHFKECTVEYELKYRNIGSETWKTIITKNLHYKDGFDLNKGIEAKIHTLLPWQCTNGSEVQSSWAETTYWISPQGIPETKVQDMDCVYYNWQYLLCSWKPGIGVLLDTNYNLFYWYEGLDHALQCVDYIKADGQNIGCRFPYLEASDYKDFYICVNGSSENKPIRSSYFTFQLQNIVKPLPPVYLTFTRESSCEIKLKWSIPLGPIPARCFDYEIEIREDDTTLVTATVENETYTLKTTNETRQLCFVVRSKVNIYCSDDGIWSEWSDKQCWEGEDLSKKTLLR
notes: Coated on the plate and also titrated in solution as positive control compound
The term IC50 denotes the midpoint of a concentration-inhibition curve. Low values mean higher potency, high ones lower potency. On to B1, for which the IC50 in the test with hIL13-Fc [1] was found to be 7.9 nM.

B2: F0107004B02 (VHH)
VHH: EVQLVESGGGLVQAGGSLRLSCAASGRTFSSYRMGWFRQAPGKEREFVAALSGDGYSTYTANSVNSRFTISRDNAKNTVYLQMNSLKPEDTAIYYCAAKLQYVSGWSYDYPYWGQGTLVTVSS
notes: Wild-type anti-IL-13 ISVD; also called F010704B02; F107004B02; not shown: c-myc, His6 tag of the purified protein
For orientation: koff means the first-order rate constant of dissociation. A lower koff goes with slow dissociation. Usually Kd stands for the free concentration of one partner at which half of the binding sites on the other are occupied at equilibrium, for simple one-to-one binding. Usually kon stands for the second-order rate constant of association. A lower kon goes with slower complex formation. For the molecule B2, the koff with hIL13-Fc [2] was 0.0017 s⁻¹; with cyno IL13-Fc [3], 0.0011 s⁻¹; with cyno IL13-Fc [8], 0.034 s⁻¹; with hIL13-Fc [9], 0.024 s⁻¹; with hIL13-Fc [10], 0.024 s⁻¹. Further, the IC50 was 49 nM with hIL13-Fc [4], 4 nM with human IL-13 [6] and 1.7 nM with human IL-13 [7]. The “IC50, IL-13-induced TF-1 proliferation assay” value in the test with human IL-13 [5] was found to be 27 nM. Moreover, the Kd with cyno IL13-Fc [8] was determined as 1900 nM; in the test with hIL13-Fc [9], 1100 nM; with hIL13-Fc [10] it was 1100 nM. Further, the on-rate (kon) turned out to be 18000 M⁻¹ s⁻¹ in the test with cyno IL13-Fc [8], 22000 M⁻¹ s⁻¹ in the test with hIL13-Fc [9] and 22000 M⁻¹ s⁻¹ with hIL13-Fc [10].

B3: F0107529F10 (VHH)
VHH: EVQLVESGGGLVQAGGSLRLSCAASGFTFADYDYDIGWFRQAPGKEREGVSCISNRDGSTYYTDSVKGRFTISSDNAKNTVSLQMNSLKPEDTAVYYCAVEIHCDDYGVENFDFDPWGQGTLVTVSS
notes: Wild-type anti-TSLP ISVD; also called F107529F10; not shown: c-myc, His6 tag of the purified protein
For B3, the IC50 came to 0.18 nM with human TSLP [11] and 0.013 nM with human TSLP [13]. The koff in the test with cyno TSLP [12] is 0.0018 s⁻¹; with cyno TSLP-Fc [15], 0.0015 s⁻¹; with hTSLP-Fc [16] it was 0.00042 s⁻¹; with human TSLP [17], 6.6e-05 s⁻¹; in the test with cyno TSLP-Fc [18], 0.0018 s⁻¹; with hTSLP-Fc [19], less than 5e-05 s⁻¹. The Kd was determined as 1.7 nM in the test with cyno TSLP-Fc [14], 1.7 nM with cyno TSLP-Fc [15], 0.035 nM with hTSLP-Fc [16] and 0.035 nM with hTSLP-Fc [20]. Also, the figures for the on-rate constant (kon) in the test with cyno TSLP-Fc [15] and in the test with hTSLP-Fc [16] were 870000 M⁻¹ s⁻¹ and 1.2e+07 M⁻¹ s⁻¹, respectively.

B4: F027400161 (other)
chain: DVQLVESGGGVVQPGGSLRLSCAASGRTFSSYRMGWFRQAPGKEREFVAALSGDGYSTYTANSVKGRFTISRDNSKNTVYLQMNSLRPEDTALYYCAAKLQYVSGWSYDYPYWGQGTLVTVSSGGGGSGGGGSGGGGSGGGGSGGGGSGGGGSGGGGSEVQLVESGGGVVQPGGSLRLSCAASGFTFNNYAMKWVRQAPGKGLEWVSSITTGGGSTDYADSVKGRFTISRDNSKNTLYLQMNSLRPEDTALYYCANVPFGYYSEHFSGLSFDYRGQGTLVTVSSGGGGSGGGSEVQLVESGGGVVQPGGSLRLSCAASGSGFGVNILYWYRQAAGIERELIASITSGGITNYVDSVKGRFTISRDNSENTMYLQMNSLRAEDTGLYYCASRNIFDGTTEWGQGTLVTVSSGGGGSGGGSEVQLVESGGGVVQPGGSLRLSCAASGFTFRSFGMSWVRQAPGKGPEWVSSISGSGSDTLYADSVKGRFTISRDNSKNTLYLQMNSLRPEDTALYYCTIGGSLSRSSQGTLVTVSSGGGGSGGGSEVQLVESGGGVVQPGGSLRLSCAASGFTFADYDYDIGWFRQAPGKEREGVSCISNRDGSTYYADSVKGRFTISRDNSKNTVYLQMNSLRPEDTALYYCAVEIHCDDYGVENFDFDPWGQGTLVTVSSA
notes: Pentavalent trispecific ISVD construct (two anti-IL-13 VHHs, two anti-TSLP VHHs, one anti-albumin VHH), Pichia pastoris, purified by Protein A; also called F027100161
On to B4, for which the equilibrium dissociation constant (Kd) in the test with cyno IL-13 [21] was 0.0035 nM; with rhesus IL-13 [22] it was 0.0015 nM; with cyno TSLP [23] it was 0.059 nM; in the test with human TSLP [24], 0.001 nM; in the test with human IL-13 [25], 0.0047 nM; with cyno IL-13 [30] it was 0.0038 nM and 0.0015 nM. In addition, the dissociation constant (Kd) in the test with cyno TSLP [31] was 0.0559 nM and 0.044 nM; in the test with human TSLP [32] it was 0.0018 nM and 0.0023 nM; with human IL-13 [33], 0.0042 nM and 0.0063 nM; in the test with human serum albumin, 0.119 nM and 0.11 nM and 0.145 nM; with cyno serum albumin, 0.198 nM and 0.133 nM and 0.145 nM; in the test with mouse serum albumin, 1.8 nM. In addition, the binding result with human IL7 is listed as “no binding (tested: 1 µM)”; with human IL4, “no binding (tested: 1 µM)”; in the test with short form of TSLP it was “no binding (tested: 500 nM)”. Besides, the “BaF3 proliferation assay (IC50, pM)” value with cyno TSLP [26] was 24 pM; in the test with human TSLP [27], 7.8 pM. Further, the “IC50, SEAP reporter assay (HEK-Blue IL-4/IL-13 cells)” value with cyno IL-13 [28] was 0.0534 nM; in the test with human IL-13 [29], 0.0328 nM. The “mean IC50, TSLP-induced CCL17 production in human DCs” value in the test with human TSLP [34] is 0.0533 nM. Further, the “eotaxin release assay (IC50, pM)” value in the test with cyno IL-13 [35] amounted to 1040 pM; in the test with rhesus IL-13 [36], 713 pM; in the test with human IL-13 [37], 194 pM.
